Biological target: GST-HA-ATG16L1-231–607 produced in yeast (extended WDD construct that includes residue 300), Q676U5
Assay: peptide microarray
Settings: chain shown with the change, probe purified from yeast, mean ± s.d., n=9 replicas, read off a plot

Sequence of GST-HA-ATG16L1-231–607 produced in yeast (extended WDD construct that includes residue 300), Q676U5 (Q676U5 231-607): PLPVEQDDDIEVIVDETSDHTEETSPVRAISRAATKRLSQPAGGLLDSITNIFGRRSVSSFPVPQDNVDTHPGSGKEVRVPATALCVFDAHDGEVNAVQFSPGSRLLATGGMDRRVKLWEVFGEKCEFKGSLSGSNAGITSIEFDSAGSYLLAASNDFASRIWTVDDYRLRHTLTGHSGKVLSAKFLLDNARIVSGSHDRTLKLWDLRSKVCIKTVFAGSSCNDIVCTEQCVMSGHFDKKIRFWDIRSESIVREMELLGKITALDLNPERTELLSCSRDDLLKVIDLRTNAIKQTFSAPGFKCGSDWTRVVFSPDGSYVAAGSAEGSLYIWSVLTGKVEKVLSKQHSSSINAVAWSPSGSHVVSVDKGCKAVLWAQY

For TAVEQAVPSAKLSIAGDAE, the percent of parent (parent: est. 100, scale: % of WT peptide) was 12 and the response (parent: est. 1100) was 200 a.u. (OD635).

Reference: publication PMC4899871
